# Measured values reported in patent publication US20190060430A1 (published 2019).
# T1: TPTE peptide on HLA-DRB1*13:01 (human)
# T1 peptide: RRVSENKRRYTRDGF
# T2: TPTE peptide on HLA-DQA1*01:03 / HLA-DQB1*06:03 (human)
# T2 peptide: VLDNITTDKILIDVF
# T3: TPTE peptide on HLA-DQA1*01:03 / HLA-DQB1*06:02 (human)
# T3 peptide: VLDNITTDKILIDVF
# T4: TPTE peptide on HLA-DQA1*01:02 / HLA-DQB1*06:02 (human)
# T4 peptide: VLDNITTDKILIDVF
# T5: TPTE peptide on HLA-DRB1*13:01 (human)
# T5 peptide: KLIRRRVSENKRRYT
# T6: TPTE peptide on HLA-DRB1*15:01 (human)
# T6 peptide: IKKIVHSIVSSFAFG
# T7: TPTE peptide on HLA-B*07:02 (human)
# T7 peptide: PRWTHLLRL
# T8: TPTE peptide on HLA-DRB1*15:01 (human)
# T8 peptide: YVAYFAQVKHLYNWNLPPR
# T9: TPTE peptide on HLA-DRB1*15:01 (human)
# T9 peptide: DSKLYIPLEYRSISLAIAL
# T10: TPTE peptide on HLA-DRB1*13:01 (human)
# T10 peptide: VLLRVFVERRQQYFS
# T11: TPTE peptide on HLA-DRB1*07:01 (human)
# T11 peptide: YIPLEYRSISLAIAL
# T12: TPTE peptide on HLA-DRB1*07:01 (human)
# T12 peptide: VFVERRQQYFSDLFN
# T13: TPTE peptide on HLA-DRB1*13:01 (human)
# T13 peptide: PPRRILFIKHFIIYS
# T14: TPTE peptide on HLA-DRB1*15:01 (human)
# T14 peptide: LFNILDTAIIVILLL
# T15: TPTE peptide on HLA-DRB1*15:01 (human)
# T15 peptide: RRQQYFSDLFNILDT
# T16: TPTE peptide on HLA-DRB1*15:01 (human)
# T16 peptide: DVVYIFFDIKLLRNI
# T17: TPTE peptide on HLA-DRB1*15:01 (human)
# T17 peptide: ILFIKHFIIYSIPRY
# T18: TPTE peptide on HLA-DRB1*13:01 (human)
# T18 peptide: KHFIIYSIPRYVRDLKIQI
# B1: TCRCD4-TPT#78 (TCR, V domains shown)
# Valpha: AQSVTQLDSQVPVFEEAPVELRCNYSSSVSVYLFWYVQYPNQGLQLLLKYLSGSTLVKGINGFEAEFNKSQTSFHLRKPSVHISDTAEYFCAVGPNNFNKFYFGSGTKLNVKP
# Vbeta: EPEVTQTPSHQVTQMGQEVILRCVPISNHLYFYWYRQILGQKVEFLVSFYNNEISEKSEIFDDQFSVERPDGSNFTLKIRSTKLEDSAMYFCASSPVGGYNSPLHFGNGTRLTVT
# B2: TCRCD4-TPT#76 (TCR, V domains shown)
# Valpha: AQSVTQPDIHITVSEGASLELRCNYSYGATPYLFWYVQSPGQGLQLLLKYFSGDTLVQGIKGFEAEFKRSQSSFNLRKPSVHWSDAAEYFCAVGAFTRGGSEKLVFGKGMKLTVNP
# Vbeta: DGGITQSPKYLFRKEGQNVTLSCEQNLNHDAMYWYRQDPGQGLRLIYYSQIVNDFQKGDIAEGYSVSREKKESFPLTVTSAQKNPTAFYLCATGSYVGYEQYFGPGTRLTVT
# B3: TCRCD4-TPT#51 (TCR, V domains shown)
# Valpha: GENVEQHPSTLSVQEGDSAVIKCTYSDSASNYFPWYKQELGKRPQLIIDIRSNVGEKKDQRIAVTLNKTAKHFSLHITETQPEDSAVYFCAALSGGSNYKLTFGKGTLLTVNP
# Vbeta: EAGVTQFPSHSVIEKGQTVTLRCDPISGHDNLYWYRRVMGKEIKFLLHFVKESKQDESGMPNNRFLAERTGGTYSTLKVQPAELEDSGVYFCASSQQENTEAFFGQGTRLTVV
# B4: TCRCD4-TPT#57 (TCR, V domains shown)
# Valpha: AQSVSQHNHHVILSEAASLELGCNYSYGGTVNLFWYVQYPGQHLQLLLKYFSGDPLVKGIKGFEAEFIKSKFSFNLRKPSVQWSDTAEYFCAVNARDNAGKSTFGDGTTLTVKP
# Vbeta: KAGVTQTPRYLIKTRGQQVTLSCSPISGHRSVSWYQQTPGQGLQFLFEYFSETQRNKGNFPGRFSGRQFSNSRSEMNVSTLELGDSALYLCASRGEPSSYEQYFGPGTRLTVT
# B5: TCRCD8-TPT#35/2 (TCR, V domains shown)
# Valpha: AQKVTQAQTEISVVEKEDVTLDCVYETRDTTYYLFWYKQPPSGELVFLIRRNSFDEQNEISGRYSWNFQKSTSSFNFTITASQVVDSAVYFCALIEAAAGNKLTFGGGTRVLVKP
# Vbeta: NAGVTQTPKFRVLKTGQSMTLLCAQDMNHEYMYWYRQDPGMGLRLIHYSVGEGTTAKGEVPDGYNVSRLKKQNFLLGLESAAPSQTSVYFCASSDGYGYTFGSGTRLTVV
# B6: TCRCD4-TPT#49 (TCR, V domains shown)
# Valpha: AQTVTQSQPEMSVQEAETVTLSCTYDTSENNYYLFWYKQPPSRQMILVIRQEAYKQQNATENRFSVNFQKAAKSFSLKISDSQLGDTAMYFCAFMKNTGNQFYFGTGTSLTVIP
# Vbeta: DGGITQSPKYLFRKEGQNVTLSCEQNLNHDAMYWYRQDPGQGLRLIYYSQIVNDFQKGDIAEGYSVSREKKESFPLTVTSAQKNPTAFYLCASRRLDGLGIGELFFGEGSRLTVL
# B7: TCRCD4-TPT#52 (TCR, V domains shown)
# Valpha: AQSVTQPDIHITVSEGASLELRCNYSYGATPYLFWYVQSPGQGLQLLLKYFSGDTLVQGIKGFEAEFKRSQSSFNLRKPSVHWSDAAEYFCAVGAQGAQKLVFGQGTRLTINP
# Vbeta: NAGVTQTPKFQVLKTGQSMTLQCAQDMNHNSMYWYRQDPGMGLRLIYYSASEGTTDKGEVPNGYNVSRLNKREFSLRLESAAPSQTSVYFCASSEAGGSSFEQYFGPGTRLTVT
# B8: TCRCD4-TPT#59 (TCR, V domains shown)
# Valpha: ELKVEQNPLFLSMQEGKNYTIYCNYSTTSDRLYWYRQDPGKSLESLFVLLSNGAVKQEGRLMASLDTKARLSTLHITAAVHDLSATYFCAVDNEFYFGTGTSLTVIP
# Vbeta: DTGVSQDPRHKITKRGQNVTFRCDPISEHNRLYWYRQTLGQGPEFLTYFQNEAQLEKSRLLSDRFSAERPKGSFSTLEIQRTEQGDSAMYLCASSLLGAGNIQYFGAGTRLSVL
# B9: TCRCD4-TPT#9 (TCR, V domains shown)
# Valpha: QQQVKQSPQSLIVQKGGISIINCAYENTAFDYFPWYQQFPGKGPALLIAIRPDVSEKKEGRFTISFNKSAKQFSLHIMDSQPGDSATYFCAASFYTGNQFYFGTGTSLTVIP
# Vbeta: DTAVSQTPKYLVTQMGNDKSIKCEQNLGHDTMYWYKQDSKKFLKIMFSYNNKELIINETVPNRFSPKSPDKAHLNLHINSLELGDSAVYFCASSQEALGGGYGYTFGSGTRLTVV
# B10: TCRCD4-TPT#82 (TCR, V domains shown)
# Valpha: AQTVTQSQPEMSVQEAETVTLSCTYDTSESDYYLFWYKQPPSRQMILVIRQEAYKQQNATENRFSVNFQKAAKSFSLKISDSQLGDAAMYFCAYRSAGLLLTFGGGTRLMVKP
# Vbeta: DGGITQSPKYLFRKEGQNVTLSCEQNLNHDAMYWYRQDPGQGLRLIYYSQIVNDFQKGDIAEGYSVSREKKESFPLTVTSAQKNPTAFYLCASSKAPGQGNTQGWEQYFGPGTRLTVT
# B11: TCRCD4-TPT#79 (TCR, V domains shown)
# Valpha: AQTVTQSQPEMSVQEAETVTLSCTYDTSESDYYLFWYKQPPSRQMILVIRQEAYKQQNATENRFSVNFQKAAKSFSLKISDSQLGDAAMYFCAYRSYNAGNMLTFGGGTRLMVKP
# Vbeta: KAGVTQTPRYLIKTRGQQVTLSCSPISGHRSVSWYQQTPGQGLQFLFEYFSETQRNKGNFPGRFSGRQFSNSRSEMNVSTLELGDSALYLCASSDTSGGGGEQFFGPGTRLTVL
# B12: TCRCD4-TPT#45 (TCR, V domains shown)
# Valpha: GESVGLHLPTLSVQEGDNSIINCAYSNSASDYFIWYKQESGKGPQFIIDIRSNMDKRQGQRVTVLLNKTVKHLSLQIAATQPGDSAVYFCAETRQGGKLIFGQGTELSVKP
# Vbeta: GAVVSQHPSWVICKSGTSVKIECRSLDFQATTMFWYRQFPKQSLMLMATSNEGSKATYEQGVEKDKFLINHASLTLSTLTVTSAHPEDSSFYICSAPPGVTVRAYGYTFGSGTRLTVV
# B13: TCRCD4-TPT#77 (TCR, V domains shown)
# Valpha: AQKITQTQPGMFVQEKEAVTLDCTYDTSDPSYGLFWYKQPSSGEMIFLIYQGSYDQQNATEGRYSLNFQKARKSANLVISASQLGDSAMYFCAMREGLAKTSYDKVIFGPGTSLSVIP
# Vbeta: GAVVSQHPSWVICKSGTSVKIECRSLDFQATTMFWYRQFPKQSLMLMATSNEGSKATYEQGVEKDKFLINHASLTLSTLTVTSAHPEDSSFYICSAPGTGHSAGELFFGEGSRLTVL
# Assays:
# Experiment in all cases: cytokine release
# [1] = target: T1, TPTE peptide on HLA-DRB1*13:01
# [2] = target: T2, TPTE peptide on HLA-DQA1*01:03 / …
# [3] = target: T3, TPTE peptide on HLA-DQA1*01:03 / …
# [4] = target: T4, TPTE peptide on HLA-DQA1*01:02 / …
# [5] = target: T5, TPTE peptide on HLA-DRB1*13:01
# [6] = target: T6, TPTE peptide on HLA-DRB1*15:01
# [7] = target: T7, TPTE peptide on HLA-B*07:02
# [8] = target: T8, TPTE peptide on HLA-DRB1*15:01
# [9] = target: T9, TPTE peptide on HLA-DRB1*15:01
# [10] = target: T10, TPTE peptide on HLA-DRB1*13:01
# [11] = target: T11, TPTE peptide on HLA-DRB1*07:01
# [12] = target: T12, TPTE peptide on HLA-DRB1*07:01
# [13] = target: T13, TPTE peptide on HLA-DRB1*13:01
# [14] = target: T14, TPTE peptide on HLA-DRB1*15:01
# [15] = target: T15, TPTE peptide on HLA-DRB1*15:01
# [16] = target: T16, TPTE peptide on HLA-DRB1*15:01
# [17] = target: T17, TPTE peptide on HLA-DRB1*15:01
# [18] = target: T18, TPTE peptide on HLA-DRB1*13:01
binder,measurement,setting,value
B1,binding result,[1],recognises
B2,binding result,[2],recognises
same,binding result,[3],recognises
same,binding result,[4],recognises
B3,binding result,[5],recognises
B4,binding result,[6],recognises
B5,binding result,[7],recognises
B6,binding result,[8],recognises
B7,binding result,[9],recognises
B8,binding result,[10],recognises
B9,binding result,[11],recognises
same,binding result,[12],recognises
B10,binding result,[13],recognises
B11,binding result,[14],recognises
same,binding result,[15],recognises
same,binding result,[16],recognises
B12,binding result,[17],recognises
B13,binding result,[18],recognises
